Common to all, as to type: biochemical
The test system of one data set is rituximab. Nature of the data set: Hydrolysis activity assay of Endo-S and D233 mutants, LC-ESI-MS. The note with it: rituximab 1.0 mg/mL as substrate, enzyme 0.01 mg/mL, PBS pH 7.4, 30° C., 5 min, duplicate. The method, then: (§1) The hydrolytic activity of the mutants generated was evaluated using rituximab as the substrate, and the transglycosylation activity was evaluated using the sugar oxazoline and the deglycosylated rituximab as the donor and acceptor substrates, respectively (Scheme 1).
(§2) The LC-MS characterization of different antibody glycoforms was conducted on an Exactive Plus Orbitrap instrument (Thermo Scientific). The intact antibody sample was analyzed with a Waters XBridge™ BEH300 C4 column (3.5 μm, 2.1×50 mm). The program includes a 9 min linear gradient of 5-90% MeCN containing 0.1% formic acid at a flow rate of 0.4 mL/min. The original mass data were processed through deconvolution and integration through MagTran Software (Amgen).
(§3) Peptide-N-Glycosidase F (PNGase F) treated rituximab was used as the internal standard due to its similarities to the deglycosylated and transferred product in terms of their molecular structures and ionization efficiencies. After PNGase F treatment, a mutation will be introduced into the amino acid sequence of rituximab so the product antibody will not interfere with the reaction via re-glycosylation^35. A standard product S2G2F-rituximab was synthesized following the previously reported procedure^29. […] Serial dilutions containing a gradient of S2G2F-rituximab (0, 0.25, 0.5, 0.75, 1.0, 1.25 and 1.5 μM) were mixed with a stock solution containing 0.67 μM internal standard. These mixed sample solutions were quantified by selected ion monitoring (SIM) to calculate the single-point normalization factor^31. The factor could then be used to calculate the relative amount of the final product N-glycoform for each reaction in the following experiments.
(§4) The hydrolytic activity of each Endo-S mutants and the wild-type (0.01 mg/mL) was assayed in PBS (pH 7.4, 10 μl) at 30° C. with synthetic biantennary sialo-complex-type rituximab (1.0 mg/mL, 6.9 μM) as the starting material. Each reaction was terminated at 5 min and an aliquot was taken from the reaction mixture and dissolved in 0.1% formic acid. The relative quantity of the hydrolysis product was calculated through deconvolution and integration of the selected MS peaks. The experimental details of product quantification using LC-MS are illustrated below. The transglycosylation activity of Endo-S was measured in a similar fashion: deglycosylated Rituximab (10.0 mg/mL, 69 μM) was incubated with SCT-Oxa (1.38 mM, 20 eq) under catalysis of Endo-S enzymes (0.01 mg/mL) under the same condition as hydrolysis. The transglycosylation product SCT-Rituximab was analyzed as mentioned above. Both functional assays were repeated twice for each mutant and the wild-type, and the average activity was recorded

For data set [1], the system named is deglycosylated rituximab. Nature of the data set: Transglycosylation activity assay of Endo-S and D233 mutants, LC-ESI-MS. The settings on record: for Transglycosylation Activity: deglycosylated rituximab 10.0 mg/mL, SCT-Oxa 1.38 mM (20 eq), enzyme 0.01 mg/mL, PBS pH 7.4, 30° C., duplicate; for Transglycosylation/Hydrolysis Ratio T/H: ratio of transglycosylation to hydrolysis activity, Table 1. The method, then:
as §1, §2, §3, §4

A short description of data set [2]: Kinetic measurements (KM, Vmax) of Endo-S/Endo-S2 mutants for SCT-Oxa. The settings on record: Endo-S mutants, donor substrate SCT-Oxa, PBS pH 7.4, 30° C. On the procedure: Using a sialylated glycan oxazoline (SCT-Oxa) as the donor and the deglycosylated rituximab as the acceptor substrate, we measured the kinetic parameters of the enzyme catalyzed glycosylation were measured. A mass spectrometry-based approach with an internal standard was used to estimate the product formation.^31-33.
as §3
Measurements of KM and Vmax for SCT-oxa. Serial dilutions with a total volume of 10 μL were prepared with a gradient of SCT-oxa concentrations and a constant deglycosylated antibody concentration mixed in PBS, pH 7.4. Each reaction was initiated by adding 1μμL, of Endo-S/S2 mutants with a concentration of 0.1 mg/M1 and the reaction was conducted at 30° C. The concentrations of SCT-oxa were within a range from 6.25 μM to 400 μM. For each reaction, three aliquots were taken at t=1, 2 and 3 min and immediately quenched in 100 μL 0.1% formic acid. The quenched reaction samples were then characterized by ESI-MS, and the concentration of product in each mixture was calculated using the normalization factor, as shown above. […] The KM and Vmax were measured by fitting the initial velocity against the SCT-oxa concentration using the GraphPad Prism7 program. The experiments were conducts in triplicate to determine the error in these measurements.

Data set [3] has as its system deglycosylated rituximab. Nature of the data set: Kinetic measurements (KM, Vmax) of Endo-S/Endo-S2 mutants for deglycosylated rituximab. The settings on record: Endo-S mutants, acceptor substrate deglycosylated rituximab, SCT-Oxa fixed at 400 μM.
Description: as §3
Measurements of KM and Vmax for SCT-oxa. Serial dilutions with a total volume of 10 μL were prepared with a gradient of SCT-oxa concentrations and a constant deglycosylated antibody concentration mixed in PBS, pH 7.4. Each reaction was initiated by adding 1μμL, of Endo-S/S2 mutants with a concentration of 0.1 mg/M1 and the reaction was conducted at 30° C. The concentrations of SCT-oxa were within a range from 6.25 μM to 400 μM. For each reaction, three aliquots were taken at t=1, 2 and 3 min and immediately quenched in 100 μL 0.1% formic acid. The quenched reaction samples were then characterized by ESI-MS, and the concentration of product in each mixture was calculated using the normalization factor, as shown above. A linear progression curve was confirmed for each reaction by sampling at multiple early time points and plotting them in the same graph, which emphasized that the V0 measured indeed represents the initial rate of each reaction. The KM and Vmax were measured by fitting the initial velocity against the SCT-oxa concentration using the GraphPad Prism7 program. The experiments were conducts in triplicate to determine the error in these measurements.
The KM and Vmax values of both Endo-S and Endo-S2 mutants for the deglycosylated antibody substrate were measured in a similar fashion as to those for SCT-Oxa. In the serial reactions, the concentrations of antibody range from 0.313 μM to 20 μM, whereas the SCT-Oxa concentration was fixed at 400 μM. A similar control reaction was also performed for each concentration to monitor the non-enzymatic side reactions.

B1: Endo-S D233A (protein)
chain: MDKHLLVKRTLGCVCAATLMGAALATHHDSLNTVKAEEKTVQVQKGLPSIDSLHYLSENSKKEFKEELSKAGQESQKVKEILAKAQQADKQAQELAKMKIPEKIPMKPLHGPLYGGYFRTWHDKTSDPTEKDKVNSMGELPKEVDLAFIFHDWTKDYSLFWKELATKHVPKLNKQGTRVIRTIPWRFLAGGDNSGIAEDTSKYPNTPEGNKALAKAIVDEYVYKYNLDGLDVAVEHDSIPKVDKKEDTAGVERSIQVFEEIGKLIGPKGVDKSRLFIMDSTYMADKNPLIERGAPYINLLLVQVYGSQGEKGGWEPVSNRPEKTMEERWQGYSKYIRPEQYMIGFSFYEENAQEGNLWYDINSRKDEDKANGINTDITGTRAERYARWQPKTGGVKGGIFSYAIDRDGVAHQPKKYAKQKEFKDATDNIFHSDYSVSKALKTVMLKDKSYDLIDEKDFPDKALREAVMAQVGTRKGDLERFNGTLRLDNPAIQSLEGLNKFKKLAQLDLIGLSRITKLDRSVLPANMKPGKDTLETVLETYKKDNKEEPATIPPVSLKVSGLTGLKELDLSGFDRETLAGLDAATLTSLEKVDISGNKLDLAPGTENRQIFDTMLSTISNHVGSNEQTVKFDKQKPTGHYPDTYGKTSLRLPVANEKVDLQSQLLFGTVTNQGTLINSEADYKAYQNHKIAGRSFVDSNYHYNNFKVSYENYTVKVTDSTLGTTTDKTLATDKEETYKVDFFSPADKTKAVHTAKVIVGDEKTMMVNLAEGATVIGGSADPVNARKVFDGQLGSETDNISLGWDSKQSIIFKLKEDGLIKHWRFFNDSARNPETTNKPIQEASLQIFNIKDYNLDNLLENPNKFDDEKYWITVDTYSAQGERATAFSNTLNNITSKYWRVVFDTKGDRYSSPVVPELQILGYPLPNADTIMKTVTTAKELSQQKDKFSQKMLDELKIKEMALETSLNSKIFDVTAINANAGVLKDCIEKRQLLKK
Take B1: the “Specific Hydrolysis Activity” value in the data set with rituximab is given as 0.06 100*(μmol/min/mg). Besides, in the data set on deglycosylated rituximab [1], the “Transglycosylation Activity” value is listed as 1.06 100*(μmol/min/mg) and the “Transglycosylation/Hydrolysis Ratio T/H” value was 17.67. Moreover, in data set [2], the Km came out at 87.9 ± 10.1 µM and the kcat turned out to be 0.0223 ± 0.00317 s⁻¹. Further, the Km in the data set with deglycosylated rituximab [3] is above 200 µM.

B2: Endo-S D233Q (protein)
chain: MDKHLLVKRTLGCVCAATLMGAALATHHDSLNTVKAEEKTVQVQKGLPSIDSLHYLSENSKKEFKEELSKAGQESQKVKEILAKAQQADKQAQELAKMKIPEKIPMKPLHGPLYGGYFRTWHDKTSDPTEKDKVNSMGELPKEVDLAFIFHDWTKDYSLFWKELATKHVPKLNKQGTRVIRTIPWRFLAGGDNSGIAEDTSKYPNTPEGNKALAKAIVDEYVYKYNLDGLDVQVEHDSIPKVDKKEDTAGVERSIQVFEEIGKLIGPKGVDKSRLFIMDSTYMADKNPLIERGAPYINLLLVQVYGSQGEKGGWEPVSNRPEKTMEERWQGYSKYIRPEQYMIGFSFYEENAQEGNLWYDINSRKDEDKANGINTDITGTRAERYARWQPKTGGVKGGIFSYAIDRDGVAHQPKKYAKQKEFKDATDNIFHSDYSVSKALKTVMLKDKSYDLIDEKDFPDKALREAVMAQVGTRKGDLERFNGTLRLDNPAIQSLEGLNKFKKLAQLDLIGLSRITKLDRSVLPANMKPGKDTLETVLETYKKDNKEEPATIPPVSLKVSGLTGLKELDLSGFDRETLAGLDAATLTSLEKVDISGNKLDLAPGTENRQIFDTMLSTISNHVGSNEQTVKFDKQKPTGHYPDTYGKTSLRLPVANEKVDLQSQLLFGTVTNQGTLINSEADYKAYQNHKIAGRSFVDSNYHYNNFKVSYENYTVKVTDSTLGTTTDKTLATDKEETYKVDFFSPADKTKAVHTAKVIVGDEKTMMVNLAEGATVIGGSADPVNARKVFDGQLGSETDNISLGWDSKQSIIFKLKEDGLIKHWRFFNDSARNPETTNKPIQEASLQIFNIKDYNLDNLLENPNKFDDEKYWITVDTYSAQGERATAFSNTLNNITSKYWRVVFDTKGDRYSSPVVPELQILGYPLPNADTIMKTVTTAKELSQQKDKFSQKMLDELKIKEMALETSLNSKIFDVTAINANAGVLKDCIEKRQLLKK
In the case of B2, the “Specific Hydrolysis Activity” value with rituximab is on record as 0.05 100*(μmol/min/mg). In addition, in the data set with deglycosylated rituximab [1], the “Transglycosylation Activity” value is given as 0.98 100*(μmol/min/mg) and the “Transglycosylation/Hydrolysis Ratio T/H” value turned out to be 19.60.

B3: Endo-S WT: wild-type Endo-S, endo-β-N-acetylglucosaminidase of Streptococcus pyogenes (SEQ ID NO: 1) (protein)
chain: MDKHLLVKRTLGCVCAATLMGAALATHHDSLNTVKAEEKTVQVQKGLPSIDSLHYLSENSKKEFKEELSKAGQESQKVKEILAKAQQADKQAQELAKMKIPEKIPMKPLHGPLYGGYFRTWHDKTSDPTEKDKVNSMGELPKEVDLAFIFHDWTKDYSLFWKELATKHVPKLNKQGTRVIRTIPWRFLAGGDNSGIAEDTSKYPNTPEGNKALAKAIVDEYVYKYNLDGLDVDVEHDSIPKVDKKEDTAGVERSIQVFEEIGKLIGPKGVDKSRLFIMDSTYMADKNPLIERGAPYINLLLVQVYGSQGEKGGWEPVSNRPEKTMEERWQGYSKYIRPEQYMIGFSFYEENAQEGNLWYDINSRKDEDKANGINTDITGTRAERYARWQPKTGGVKGGIFSYAIDRDGVAHQPKKYAKQKEFKDATDNIFHSDYSVSKALKTVMLKDKSYDLIDEKDFPDKALREAVMAQVGTRKGDLERFNGTLRLDNPAIQSLEGLNKFKKLAQLDLIGLSRITKLDRSVLPANMKPGKDTLETVLETYKKDNKEEPATIPPVSLKVSGLTGLKELDLSGFDRETLAGLDAATLTSLEKVDISGNKLDLAPGTENRQIFDTMLSTISNHVGSNEQTVKFDKQKPTGHYPDTYGKTSLRLPVANEKVDLQSQLLFGTVTNQGTLINSEADYKAYQNHKIAGRSFVDSNYHYNNFKVSYENYTVKVTDSTLGTTTDKTLATDKEETYKVDFFSPADKTKAVHTAKVIVGDEKTMMVNLAEGATVIGGSADPVNARKVFDGQLGSETDNISLGWDSKQSIIFKLKEDGLIKHWRFFNDSARNPETTNKPIQEASLQIFNIKDYNLDNLLENPNKFDDEKYWITVDTYSAQGERATAFSNTLNNITSKYWRVVFDTKGDRYSSPVVPELQILGYPLPNADTIMKTVTTAKELSQQKDKFSQKMLDELKIKEMALETSLNSKIFDVTAINANAGVLKDCIEKRQLLKK
modifications: Streptococcus pyogenes
Regarding B3, in the data set with rituximab, the “Specific Hydrolysis Activity” value is listed as 2.77 100*(μmol/min/mg). In addition, in the data set with deglycosylated rituximab [1], the “Transglycosylation Activity” value is 25.89 100*(μmol/min/mg) and the “Transglycosylation/Hydrolysis Ratio T/H” value was 9.35.

As a reminder, the Km is the substrate concentration at which the rate is half of its maximum. Broadly, the kcat is the number of substrate molecules converted per active site and unit of time at saturation.

The record behind these values is patent publication US10836815B2, “Generation and comparative kinetic analysis of new glycosynthase mutants from Streptococcus pyogenes endoglycosidases for antibody glycoengineering” (UNIVERSITY OF MARYLAND, COLLEGE PARK, priority 2017, dated 2020).
